The values that follow come from the RNAGym collection of RNA variant scans (doi:10.7554/elife.80360).

B1: CPEB3 Ribozyme (parent)
chain: GGGGGCCACAGCAGAAGCGUUCACGUCGCGGCCCCUGUCAGAUUCUGGUGAAUCUGCGAAUUCUGCUGU

Variants of B1 are the subject of the data set. The experiment in a line: self-cleavage, relative activity (ratio to wild type); higher = more cleavage; co-transcriptional.
As to GGGGGCCACAGCAGAAGCGUUCACGUCGCGGCCCCUGUCAGAUUCUUGUGAAUCCGCGAAUUCUGCUGU [G47U U55C], the self-cleavage was found to be 0.979.
For GGGGGCCACAGCAGAAGCGUUCACGUCGCGGCCCCUGUCAGAUUCUGAUGAAUCUUCGAAUUCUGCUGU [G48A G56U], the self-cleavage was determined as 0.972.
For the variant GGGGGCCACAGCAGAAGCGUUCACGUCGCGGCCCCUGUCAGAUUCUUGUGAAUCUGCGAAUUCCGCUGU [G47U U64C], the self-cleavage amounted to 0.943.
Take GGGGGCCACAGCAGAAGCGUUCACGUCGCGGCCCCUGUCAGAUUCUUGUGAAUCUGCGAAUUCAGCUGU [G47U U64A]: the self-cleavage is 0.904.
In the case of GGGGGCCACAGCAGAAGCGUUCACGUCGCGGCCCCUGUCAGAUUCUGAUGGAUCUGCGAAUUCUGCUGU [G48A A51G] it was 1.03.
On to GGGGGCCACAGCAGAAGCGUUCACGUCGCGGCCCCUGUCAGAUUCUCGUGAAUCUGCGAAUUCCGCUGU [G47C U64C], for which the self-cleavage amounted to 0.956.
With GGGGGCCACAGCAGAAGCGUUCACGUCGCGGCCCCUGUCAGAUUCUUGUGAAUCUGCGAAUUGUGCUGU [G47U C63G], the self-cleavage amounted to 0.905.
With GGGGGCCACAGCAGAAGCGUUCACGUCGCGGCCCCUGUCAGAUUCUUGUGAAUCUGCGAAUUAUGCUGU [G47U C63A], the self-cleavage worked out at 0.944.
Turning to GGGGGCCACAGCAGAAGCGUUCACGUCGCGGCCCCUGUCAGAUUCUUGUGAAUCUGCGAAUUUUGCUGU [G47U C63U], the self-cleavage was determined as 1.01.
For GGGGGCCACAGCAGAAGCGUUCACGUCGCGGCCCCUGUCAGAUUCUUGUGACUCUGCGAAUUCUGCUGU [G47U A52C], the self-cleavage was determined as 1.02.
In the case of GGGGGCCACAGCAGAAGCGUUCACGUCGCGGCCCCUGUCAGAUUCUUGUGAGUCUGCGAAUUCUGCUGU [G47U A52G] it was 0.987.
In the case of GGGGGCCACAGCAGAAGCGUUCACGUCGCGGCCCCUGUCAGAUUCUUGUGAAUCUGCGAAUUCUACUGU [G47U G65A], the self-cleavage worked out at 0.953.
Under GGGGGCCACAGCAGAAGCGUUCACGUCGCGGCCCCUGUCAGAUUCUUGUGAAUCUGCGAAUUCUUCUGU [G47U G65U] stands 0.946; under GGGGGCCACAGCAGAAGCGUUCACGUCGCGGCCCCUGUCAGAUUCUUUUGAAUCUGCGAAUUCUGCUGU [G47U G48U], 1.01.
In the case of GGGGGCCACAGCAGAAGCGUUCACGUCGCGGCCCCUGUCAGAUUCUUAUGAAUCUGCGAAUUCUGCUGU [G47U G48A] it was 1.03; in that of GGGGGCCACAGCAGAAGCGUUCACGUCGCGGCCCCUGUCAGAUUCUUGUGAAUCUGCGAAUUCUGCUAU [G47U G68A], 0.991.
Under GGGGGCCACAGCAGAAGCGUUCACGUCGCGGCCCCUGUCAGAUUCUUGUGAAUCUGCGAAUUCUGCUCU [G47U G68C] stands 1.01.
For the variant GGGGGCCACAGCAGAAGCGUUCACGUCGCGGCCCCUGUCAGAUUCUUGUGAAUCUGCGAAUUCUGCUUU [G47U G68U], the self-cleavage turned out to be 1.01.
For GGGGGCCACAGCAGAAGCGUUCACGUCGCGGCCCCUGUCAGAUUCUUGUGAAACUGCGAAUUCUGCUGU [G47U U53A], the self-cleavage was 1.01.
Take GGGGGCCACAGCAGAAGCGUUCACGUCGCGGCCCCUGUCAGAUUCUGAUGAAUCUGCGAAUUCUGCUAU [G48A G68A]: the self-cleavage was determined as 1.01.
For the variant GGGGGCCACAGCAGAAGCGUUCACGUCGCGGCCCCUGUCAGAUUCUGAUGAAUCUGCGAAUUCUGCUUU [G48A G68U], the self-cleavage came out at 1.01.
Turning to GGGGGCCACAGCAGAAGCGUUCACGUCGCGGCCCCUGUCAGAUUCUUGUGAAUCUGCGAAUACUGCUGU [G47U U62A], the self-cleavage came to 0.983.
Under GGGGGCCACAGCAGAAGCGUUCACGUCGCGGCCCCUGUCAGAUUCUCGUGAAUCUGCGAAUUCUGCAGU [G47C U67A] stands 1.04; under GGGGGCCACAGCAGAAGCGUUCACGUCGCGGCCCCUGUCAGAUUCUGAUGAAUCUGAGAAUUCUGCUGU [G48A C57A], 0.329; under GGGGGCCACAGCAGAAGCGUUCACGUCGCGGCCCCUGUCAGAUUCUUGCGAAUCUGCGAAUUCUGCUGU [G47U U49C], 0.991.
Consider GGGGGCCACAGCAGAAGCGUUCACGUCGCGGCCCCUGUCAGAUUCUUGAGAAUCUGCGAAUUCUGCUGU [G47U U49A], for which the self-cleavage was found to be 1.01.
Take GGGGGCCACAGCAGAAGCGUUCACGUCGCGGCCCCUGUCAGAUUCUUGUGAAUCUUCGAAUUCUGCUGU [G47U G56U]: the self-cleavage was 0.983.
For the variant GGGGGCCACAGCAGAAGCGUUCACGUCGCGGCCCCUGUCAGAUUCUUGUGAAUCUGCGUAUUCUGCUGU [G47U A59U], the self-cleavage came out at 0.833.
In the case of GGGGGCCACAGCAGAAGCGUUCACGUCGCGGCCCCUGUCAGAUUCUCGUGAAUCUGCGAAUUCUGCUGA [G47C U69A] it was 0.99.
GGGGGCCACAGCAGAAGCGUUCACGUCGCGGCCCCUGUCAGAUUCUCGUGAAUCUGCGAAUUCUGCUGG [G47C U69G]: the self-cleavage was 1.06.
In the case of GGGGGCCACAGCAGAAGCGUUCACGUCGCGGCCCCUGUCAGAUUCUUGUGAAUGUGCGAAUUCUGCUGU [G47U C54G] it was 0.975.
In the case of GGGGGCCACAGCAGAAGCGUUCACGUCGCGGCCCCUGUCAGAUUCUUGUUAAUCUGCGAAUUCUGCUGU [G47U G50U] it was 1.04.
In the case of GGGGGCCACAGCAGAAGCGUUCACGUCGCGGCCCCUGUCAGAUUCUGAUGAAUCUGCGAGUUCUGCUGU [G48A A60G] it was 0.916.
Consider GGGGGCCACAGCAGAAGCGUUCACGUCGCGGCCCCUGUCAGAUUCUUGUGAAUCUGCGAACUCUGCUGU [G47U U61C], for which the self-cleavage was found to be 0.937.
In the case of GGGGGCCACAGCAGAAGCGUUCACGUCGCGGCCCCUGUCAGAUUCUGAUGAAUCUGCUAAUUCUGCUGU [G48A G58U] it was 0.987; in that of GGGGGCCACAGCAGAAGCGUUCACGUCGCGGCCCCUGUCAGAUUCUGAUGAAUCUGCCAAUUCUGCUGU [G48A G58C], 0.98; in that of GGGGGCCACAGCAGAAGCGUUCACGUCGCGGCCCCUGUCAGAUUCUUGUGGAUCUGCGAAUUCUGCUGU [G47U A51G], 0.998.
In the case of GGGGGCCACAGCAGAAGCGUUCACGUCGCGGCCCCUGUCAGAUUCUUGUGAAUCUGCGAAUUCUGCAGU [G47U U67A] it was 0.99; in that of GGGGGCCACAGCAGAAGCGUUCACGUCGCGGCCCCUGUCAGAUUCUUGUGAAUCUGCGAAUUCUGCGGU [G47U U67G], 1.01.
